Assay results published in US9505841B2, “Use of an anti-Ang2 antibody” (Samsung Electronics Co., Ltd., priority 2013, dated 2016).

Legend:
[1] = test system: Tie2 receptor; experiment: Tie2, Akt and 42/44 phosphorylation in HUVEC: antibody 10D6 versus 10D6 Fab; type: cell-based, human; settings: 60 nM 10D6 antibody or 10D6 Fab with 40 nM Ang2
Description: To see whether the activation of a Tie2 receptor is resulted from the dimerization of antibody 10D6, Fab fragments of antibody 10D6 were purified and then used for this experiment. The Fab fragments were obtained from antibody 10D6 using an Fab Preparation Kit (Pierce). As a digestion buffer, PBS containing 20 mM EDTA and 20 mM L-Cysteine was used, and the antibody was separated into Fab and Fc by the treatment with an immobilized papain at a room temperature for 2 hours. The Fc fragments were removed from the reaction solution using MabSelectSuRe column (GE Healthcare) to isolate and purify pure Fab fragments only.
HUVEC (ATCC) cells (1×10^6) were cultured in a 100 mm culture dish using EGM-2 (Lonza) media at 37° C. and when they reached 80˜90% confluency, the media were replaced with serum-free media (Lonza) and cultured at 37° C. for 6 to 16 hours. The dish was washed once with PBS and after the replacement with […] sodium orthovanadate (Sigma)-mixed serum free media (Lonza), they were further cultured for 10 min. After washed once with PBS, the cultured cells were treated with a mixture prepared by mixing 60 nM of 10D6 Ang2 antibody or 10D6 Fab with 40 nM of Ang2 protein (R&D systems) and letting them stand for 20 min. and further cultured for 10 min. […]

[2] = test system: lymphatic endothelial cells; experiment: BrdU proliferation assay, lymphatic endothelial cells; type: cell-based; settings: 2 ug/ml Ang2 with 10 ug/ml antibody; 3 days
Description: The measurement assay of the proliferation of vascular and lymphatic endothelial cells was conducted using a BrdU assay kit (Roche) Cell. Vascular endothelial cells of P3˜P8 (HUVEC, ATCC) or lymphatic endothelial cells (Lonza) were placed in a collagen-coated 96-well plate (BD Bioscience) at 3000˜5000 cells/well and cultured in EGM-2 media (Lonza) for 16˜24 hours. A mixture of 2 ug/ml of Ang2 (R&D systems) and 10 ug/ml of antibody 10D6 in 2% EBM media was added to the 96-well plate washed with PBS, which was then cultured for 3 days.
For efficiency comparison, an anti-Ang2 antibody (MEDI: Medlmmune Co.) was used. For a BrdU assay, 10 ul of BrdU solution diluted at 1:1,000 was added to each well of the plate to label the cells. The cells were cultured for 1 hour and after the removal of the culture solution, 100 ul of Fixation/Denaturation solution (Roche) was added to each well and then, removed after 30-min wait. An anti-BrdU antibody (Roche) conjugated with peroxidase was diluted in a dilution buffer (Roche) at 1:100, added to each well to react for 1 hour and then, washed four times using a washing buffer (Roche). 100 ul of a TMB substrate was added thereto to react and then, absorption was measured at 450 nm using a Microplate reader (Perkin Elmer).

[3] = test system: lymphatic endothelial cells; experiment: Cell migration assay (xCelligence RTCA); type: cell-based; settings: 2 ug/ml Ang2 with antibody; slope (1/hr)
Description: Also, the measurement of the mobility of lymphatic endothelial cells was conducted using xCelligence RTCA (Realtime cell analyzer; GE Healthcare). The RTCA is a non-invasive cell monitoring system by measuring impedance in real time to identify the change of a cell. To perform a cell migration assay, a CIM-plate16 (GE Healthcare) with a lower chamber and an upper chamber was used wherein microelectrodes for measuring impedance are arranged in the upper chamber and if the cells seeded into the chamber migrate through fine holes, the migration degree of the cells can be identified through their adhesion to the microelectrodes, and it was referred to as migration index. The lymphatic endothelial cells (P5-7; Lonza) which grew up in EGM-2 media (Lonza) were cultured in 1% FBS-added EBM media for 6 hours. 2 ug/ml of Ang2 and antibody 10D6 in 2% FBS-added EBM media were added to each well of the lower chamber of the CIM-plate 16, which was assembled with the upper chamber coated with fibronectin (Sigma). For efficiency comparison, an anti-Ang2 antibody (MedImmune Co.) was used. 30 ul of serum-free EBM media was each added to the upper chamber and then, for equilibration between the plate and media, while being placed in an incubator for 1 hour, the CIM-plate was installed on a device station in the incubator and then, background values were measured. […]

B1: 10D6: mouse anti-Ang2 monoclonal antibody from hybridoma KCLRF-BP-00295; heavy chain variable region SEQ ID NO: 7, light chain variable region SEQ ID NO: 9 (antibody, V domains shown)
VH: DVQLQESGPGLVKPSQSLSLTCTVTGYSITSDYAWNWIRQFPGNKLEWMGYINYSGNTDYNPSLKSRSSITRDTSKNQFFLQLNSVTTGDTATYYCARGNFEGAMDYWGQGTSVTVSS
VL: SIVMTQTPKFLLVSAGDRVTITCKASQSVSNDVAWYQQKPGQSPKLLIYYASNRYPGVPDRFTGSGYGTDFTFTISTVQAEDLAVYFCQQDYSSPWTFGGGTKLEIK
modifications: Synthetic (Heavy chain variable region of an anti-Ang2 antibody); Synthetic (Light chain variable region of anti-Ang2 antibody)
[1]
  phosphorylation of Tie2, Akt and 42/44: occurred
[2]
  growth of lymphatic endothelial cells (BrdU): increased
[3]
  migration of lymphatic endothelial cells: increased
